Test results taken from patent US20110009343A1, “MODULATORS OF AMYLOID AGGREGATION” (Praecis Pharmaceuticals, Inc., priority 1995, published 2011).
Ends that are not written are not given here.

Key:
Assay type in all cases: biochemical
Aβ(1-40) peptide [1] = target: T1, Aβ(1-40) peptide (Homo sapiens, UniProt P05067); assay: Seeded static assay (SSA), Thioflavin-T fluorescence; details: inhibitor tested at 100 μM and 10 μM
T1 construct: (β-AP1-40) was obtained commercially from Bachem (Torrance, Calif.); purchased Bachem (Torrance, Calif.)
Method: The peptide was dissolved in 1/25 volume of dimethysulfoxide (DMSO), followed by water to 1/2 volume and 1/2 volume 2×PBS (10×PBS: NaCl 137 mM, KCl 2.7 mM Na2HPO4.7H2O 4.3 mM, KH2PO4 1.4 mM pH 7.2) to a final concentration of 200 μM.
To prepare a stock seed, 1 ml of the above Aβ monomer preparation, was incubated for 8 days at 37° C. and sheared sequentially through an 18, 23, 26 and 30 gauge needle 25, 25, 50, and 100 times respectively. 2 μl samples of the sheared material was taken for fluorescence measurements after every 50 passes through the 30 gauge needle until the fluorescence units (FU) had plateaued (approx. 100-150×).
To prepare a candidate inhibitor, the required amount of candidate inhibitor was weighed out and the stock dissolved in 1×PBS to a final concentration of 1 mM (10× stock). If insoluble, it was dissolved in 1/10 volume of DMSO and diluted in 1×PBS to 1 mM. […]
For the aggregation assay, each sample was set up in triplicate [50 μl of 200 μM monomer, 125 FU sheared seed (variable quantity dependent on the batch of seed, routinely 3-6 μl), 10 μl of 10× inhibitor solution, final volume made up to 100 μl with 1×PBS]. […] The assay was incubated at 37° C. for 6 h, taking 2 μl samples hourly for fluorescence measurements. To measure fluorescence, a 2 μl sample of Aβ was added to 400 μl of Thioflavin-T solution (50 mM Potassium Phosphate 10 mM Thioflavin-T pH 7.5).

Aβ(1-40) peptide [2] = target: T1, Aβ(1-40) peptide; assay: Shaken plate aggregation assay (absorbance 405 nm); details: % conc relative to Aβ(1-40) as printed in cell
Method: HFIP solubilized peptide was sonicated in a waterbath sonicator for 5 mM at highest setting, then evaporated to dryness under a stream of argon. The peptide film was resuspended in anhydrous dimethylsulfoxide (DMSO) at a concentration of 6.9 mg/ml, sonicated for 5 mM as before, then filtered through a 0.2 micron nylon syringe filter (VWR cat. No. 28196-050).
Candidates were assayed in triplicate. […] Into an ultra low binding 96 well plate (Corning Costar cat. No. 2500, Cambridge Mass.) 100 rtl PTL buffer (150 mM NaCl, 10 mM NaH2PO4; pH 7.4) was aliquotted per well. For each candidate, 10 μl of peptide mixture in DMSO was aliquotted into each of three wells containing buffer. The covered plate was vigorously vortexed on a plate shaker at high speed for 30 seconds. An additional 100 μl of PTL buffer was added to each well and again the plate was vortexed vigorously for 30 sec. Absorbance at 405 nm was immediately read in a plate reader for a baseline reading. The plate was returned to the plate shaker and vortexed at moderate speed for 5 hours at room temperature, with absorbance readings taken at 15-20 mM intervals. Increased absorbance indicated aggregation.

β-AP1-40 = target: T2, β-AP1-40 (Homo sapiens, UniProt P05067); assay: Static aggregation assay (SDS-PAGE)
T2 construct: (β-AP1-40) was obtained commercially from Bachem (Torrance, Calif.); purchased Bachem (Torrance, Calif.)
Method: In a third assay, β-AP aggregation was measured by visualization of the peptide aggregates using SDS-polyacrylamide gel electrophoresis (SDS-PAGE). In this assay, β-AP solutions were allowed to aggregate over a period of time and then aliquots of the reaction were run on a standard SDS-PAGE gel. Typical solution conditions were 200 μM of β-AP1-40 in PBS at 37° C. for 8 days or 200 μM β-AP1-40 in 0.1 M sodium acetate at 37° C. for 3 days. The peptide aggregates were visualized by Coomassie blue staining of the gel or, for β-AP solutions that included a biotinylated β-AP modulator, by western blotting of a filter prepared from the gel with a streptavidin-peroxidase probe, followed by a standard peroxidase assay. The β-AP aggregates are identifiable as high molecular weight, low mobility bands on the gel, which are readily distinguishable from the low molecular weight, high mobility β-AP monomer or dimer bands.

natural β-AP (β-AP1-40) = target: T3, natural β-AP (β-AP1-40) (Homo sapiens, UniProt P05067); assay: Optical density (turbidity, A400 nm) aggregation assay
T3 construct: (β-AP1-40) was obtained commercially from Bachem (Torrance, Calif.); purchased Bachem (Torrance, Calif.)
T3 sequence (P05067 672-711): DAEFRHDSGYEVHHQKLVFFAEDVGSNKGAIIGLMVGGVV
Method: In one assay, β-AP aggregation was measured by determining the increase in turbidity of a solution of natural β-AP over time in the absence or presence of various concentrations of the modulator. Turbidity of the solution was quantitated by determining the optical density at 400 nm (A400 nm) of the solution over time.
The aggregation of natural β-AP in the absence of modulator was determined as follows. β-AP1-40 was dissolved in hexafluoro isopropanol (HFIP; Aldrich Chemical Co., Inc.) at 2 mg/ml. Aliquots of the HFIP solution (87 μl) were transferred to individual 10 mm×75 mm test tubes. A stream of argon gas was passed through each tube to evaporate the HFIP. To the resulting thin film of peptide, dimethylsulfoxide (DMSO; Aldrich Chemical Co., Inc.) (25 μl) was added to dissolve the peptide. A 2 mm×7 mm teflon-coated magnetic stir bar was added to each tube. Buffer (475 μL of 100 mM NaCl, 10 mM sodium phosphate, pH 7.4) was added to the DMSO solution with stiffing. The resulting mixture was stirred continuously and the optical density was monitored at 400 nm to observe the formation of insoluble peptide aggregates.
Alternatively, β-AP1-40 was dissolved in DMSO as described above at 1.6 mM (6.9 mg/ml) and aliquots (25 μl) were added to stirred buffer (475 μl), followed by monitoring of absorbance at 400 nm […]

T1 sequence (P05067 672-711): as above
T2 sequence (P05067 672-711): as above

aggregation of natural β-AP1-40 (turbidity: lag time, slope, plateau) (natural β-AP (β-AP1-40); modulator at 1% in natural β-AP1-40 solution)	aggregation of natural β-AP1-40 (turbidity) (natural β-AP (β-AP1-40); modulator at 5% in natural β-AP1-40 solution)	Substance	Effect in Seeded Static Assay (Aβ(1-40) peptide [1])	Effect in shaken plate assay (Aβ(1-40) peptide [2])	modulator self-aggregation (high molecular weight aggregates on gel) (β-AP1-40; N-biotinyl peptide alone, no natural β-AP)	aggregation of mixture with natural β-AP1-40 (high molecular weight aggregates on gel) (β-AP1-40; mixture of natural β-AP1-40 and modulator)
–	–	Candidate Inhibitor 224: Aβ1-40 mutant F19F20->T19T20	++ (A strong inhibitor of aggregation. The rate of aggregation in the presence of the inhibitor was decreased compared to the control by at least 30-50%)	Increased lag	–	–
–	–	Candidate Inhibitor 233: Aβ6-20 modified with acetic acid (HDSGYEVHHQKLVFF; also: modified with acetic acid; UniProt P05067 677-691, looked up, fragment)	++ (A strong inhibitor of aggregation. The rate of aggregation in the presence of the inhibitor was decreased compared to the control by at least 30-50%)	–	–	–
markedly inhibited	similarly inhibited aggregation	N-biotinyl-βAP1-40	–	–	few if any high molecular weight aggregates were observed	reduced amounts of the peptide mixture associated into high molecular weight aggregates
